The target of series [1] is TDP-43 1-102 (NTD) (Homo sapiens, UniProt Q13148). Briefly: HTRF; ligand (UG)6 per legend; Methods heading names biotin (UG)4; NMR: 40 mM HEPES pH 6.5, 300 mM NaCl, 4 mM DTT, 25 C, 25 uM protein; EMSA: same buffer, 25 C incubation, 6.25% PAGE 0.5x TBE at 4 C; MST and HTRF buffers not in material. To be noted: protein: recombinant; tags: His; single strand.
Series [2] concerns the target TDP-43 1-260 (NTD-RRM1-RRM2) (Homo sapiens, UniProt Q13148). In words: MST; apparent Kd; NMR: 40 mM HEPES pH 6.5, 300 mM NaCl, 4 mM DTT, 25 C, 25 uM protein; EMSA: same buffer, 25 C incubation, 6.25% PAGE 0.5x TBE at 4 C; MST and HTRF buffers not in material. To be noted: protein: recombinant; tags: His (MST: NT-647 labelled HisTDP-43; tag cleaved when needed); single strand.

Series [3] addresses TDP-43 102-260 (RRM1-RRM2) (Homo sapiens, UniProt Q13148). The description is as above. The following applies: protein: recombinant; tags: His (MST: NT-647 labelled HisTDP-43; tag cleaved when needed); single strand.

Chain of TDP-43 1-260 (NTD-RRM1-RRM2) (Q13148 1-260): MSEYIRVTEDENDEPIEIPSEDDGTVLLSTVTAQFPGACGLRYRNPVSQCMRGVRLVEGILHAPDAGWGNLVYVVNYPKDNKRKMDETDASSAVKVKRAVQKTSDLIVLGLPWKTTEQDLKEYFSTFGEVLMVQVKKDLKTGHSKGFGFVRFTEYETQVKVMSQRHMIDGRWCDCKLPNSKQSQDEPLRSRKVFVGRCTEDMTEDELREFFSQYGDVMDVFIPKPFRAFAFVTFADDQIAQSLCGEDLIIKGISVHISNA
Chain of TDP-43 102-260 (RRM1-RRM2) (Q13148 102-260): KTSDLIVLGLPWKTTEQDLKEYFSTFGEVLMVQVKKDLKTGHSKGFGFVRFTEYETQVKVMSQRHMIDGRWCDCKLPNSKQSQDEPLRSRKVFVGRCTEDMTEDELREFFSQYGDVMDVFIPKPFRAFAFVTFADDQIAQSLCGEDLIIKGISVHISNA
Chain of TDP-43 1-102 (NTD) (Q13148 1-102): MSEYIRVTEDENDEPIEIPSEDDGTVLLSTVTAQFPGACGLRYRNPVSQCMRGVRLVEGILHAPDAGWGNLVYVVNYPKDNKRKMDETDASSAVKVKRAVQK

B1: (UG)6 HTRF ligand (ssRNA)
RNA: UGUGUGUGUGUG
Regarding B1, the binding result in series [1] was “no binding”.

B2: (UG)4 (ssRNA)
RNA: UGUGUGUG
On to B2, for which the Kd in series [2] amounted to 246 nM.

B3: (UG)6 (ssRNA)
RNA: UGUGUGUGUGUG
With B3, the Kd turned out to be 28.4 nM in series [2] and 39.8 nM in series [3].
